Data: patent US20060275803A1, “Rat and mouse members of the CRISP family of genes” (Wyeth, priority 2005, published 2006)

Biological target: T1, rCRISPA (rCRISP1) (Rattus norvegicus, UniProt P12020)
T1 construct: Native rCRISPA (rCRISP1) protein, purified with DANA present; from tissue; host or cells: rat epididymis
T1 sequence (P12020 20-246): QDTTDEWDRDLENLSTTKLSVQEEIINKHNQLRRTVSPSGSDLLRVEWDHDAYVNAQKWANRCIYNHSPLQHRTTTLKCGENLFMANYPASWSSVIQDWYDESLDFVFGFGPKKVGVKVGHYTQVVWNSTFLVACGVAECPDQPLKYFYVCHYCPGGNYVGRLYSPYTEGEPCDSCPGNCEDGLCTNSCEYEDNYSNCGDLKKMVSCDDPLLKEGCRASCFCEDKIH
Experiment: Protease activity screen: cleavage of substrate peptides by native rCRISPA (+DANA protocol), measured by fluorescence
Type: biochemical
Conditions: 5 μM substrate peptide, 1 μg enzyme, 100 mM NaCl, 25 mM Tris-Cl, pH 7.5; fluorescence at ten minute intervals for 130 minutes; FIG. 13
Description: FIG. 13 is a graph showing rCRISPA (rCRISP1) protease activity (assay conditions: 5 μM substrate peptide, 1 μg enzyme, 100 mM NaCl, 25 mM Tris-Cl, pH 7.5). A. Cleaved peptides A04 (RGARARLG), N08 (RKRRAPLA), N12 (AKRAASQI), N17 (RKRRAVLT), B22 (APQRFGKK), B17 (RQRYGKRS), B23 (RVKRYRQS), H03 (RNKRAVQG). B. Cleaved peptides B20 (PQRFGRNT), C16 (RVLGLKAH), J21 (LRNRAQSG), H07 (RVKRQVRS), H11 (RRLLRAIP), N05 (RARRELAP), H01 (RKKRSTKK), O22 (GGVRGPRV), O16 (AATRRQAV), O23 (KNVAMQKG), G24 (RRKRSTRE), A09 (RMRRYADA), M02 (EKQRIIGG), H17 (NGLRADPM). C. Uncleaved peptides L16 (KTPRWGG), N10 (FYRADQPR), B11 (AAGVAPLS), J03 (PQLHSTGG), C01 (GPQGLLGA), K11 (VIPRSGGS), M07 (GLQRALEI), A01 (WQGGRRKF), H02 (RAKRSVHF), A10 (SAARPAPP), M16 (RSRREADL), A05 (SYRKVLGQ), M18 (VHRDMAAR), C23 (RDAQAHPG), M09 (GSQHIRAE), E19 (RLGREGVQ), D06 (ALAEAMKK).
Native rCRISPA (rCRISP1) protein, purified with DANA present (see Example 4), was screened for the ability to cleave 360 unique peptides using the commercially available peptide substrate set (catalog # PrSS-360-75, JPT Peptide Technologies, Springfield, Va.). […] The substrate peptides cleaved by rCRISPA in this assay are represented by blue and green traces noted in FIG. 13. Peptides that were not cleaved by rCRISPA are also noted in FIG. 13.

Substance | cleavage of substrate peptide by rCRISPA (rCRISP1) protease activity
RVKRQVRS [H07, substrate peptide of the commercial peptide substrate set PrSS-360-75, JPT Peptide Technologies] | Cleaved
SAARPAPP [A10, substrate peptide of the commercial peptide substrate set PrSS-360-75, JPT Peptide Technologies] | Uncleaved
RVKRYRQS [B23, substrate peptide of the commercial peptide substrate set PrSS-360-75, JPT Peptide Technologies] | Cleaved
PQLHSTGG [J03, substrate peptide of the commercial peptide substrate set PrSS-360-75, JPT Peptide Technologies] | Uncleaved
RGARARLG [A04, substrate peptide of the commercial peptide substrate set PrSS-360-75, JPT Peptide Technologies] | Cleaved
FYRADQPR [N10, substrate peptide of the commercial peptide substrate set PrSS-360-75, JPT Peptide Technologies] | Uncleaved
APQRFGKK [B22, substrate peptide of the commercial peptide substrate set PrSS-360-75, JPT Peptide Technologies] | Cleaved
ALAEAMKK [D06, substrate peptide of the commercial peptide substrate set PrSS-360-75, JPT Peptide Technologies] | Uncleaved
AATRRQAV [O16, substrate peptide of the commercial peptide substrate set PrSS-360-75, JPT Peptide Technologies] | Cleaved
GGVRGPRV [O22, substrate peptide of the commercial peptide substrate set PrSS-360-75, JPT Peptide Technologies] | Cleaved
RRKRSTRE [G24, substrate peptide of the commercial peptide substrate set PrSS-360-75, JPT Peptide Technologies] | Cleaved
KNVAMQKG [O23, substrate peptide of the commercial peptide substrate set PrSS-360-75, JPT Peptide Technologies] | Cleaved
LRNRAQSG [J21, substrate peptide of the commercial peptide substrate set PrSS-360-75, JPT Peptide Technologies] | Cleaved
KTPRWGG [L16, substrate peptide of the commercial peptide substrate set PrSS-360-75, JPT Peptide Technologies] | Uncleaved
RMRRYADA [A09, substrate peptide of the commercial peptide substrate set PrSS-360-75, JPT Peptide Technologies] | Cleaved
RKRRAVLT [N17, substrate peptide of the commercial peptide substrate set PrSS-360-75, JPT Peptide Technologies] | Cleaved

Substance | cleavage of substrate peptide by rCRISPA (rCRISP1) protease activity
RNKRAVQG [H03, substrate peptide of the commercial peptide substrate set PrSS-360-75, JPT Peptide Technologies] | Cleaved
GSQHIRAE [M09, substrate peptide of the commercial peptide substrate set PrSS-360-75, JPT Peptide Technologies] | Uncleaved
SYRKVLGQ [A05, substrate peptide of the commercial peptide substrate set PrSS-360-75, JPT Peptide Technologies] | Uncleaved
RVLGLKAH [C16, substrate peptide of the commercial peptide substrate set PrSS-360-75, JPT Peptide Technologies] | Cleaved
VIPRSGGS [K11, substrate peptide of the commercial peptide substrate set PrSS-360-75, JPT Peptide Technologies] | Uncleaved
RLGREGVQ [E19, substrate peptide of the commercial peptide substrate set PrSS-360-75, JPT Peptide Technologies] | Uncleaved
PQRFGRNT [B20, substrate peptide of the commercial peptide substrate set PrSS-360-75, JPT Peptide Technologies] | Cleaved
RSRREADL [M16, substrate peptide of the commercial peptide substrate set PrSS-360-75, JPT Peptide Technologies] | Uncleaved
AKRAASQI [N12, substrate peptide of the commercial peptide substrate set PrSS-360-75, JPT Peptide Technologies] | Cleaved
RQRYGKRS [B17, substrate peptide of the commercial peptide substrate set PrSS-360-75, JPT Peptide Technologies] | Cleaved
VHRDMAAR [M18, substrate peptide of the commercial peptide substrate set PrSS-360-75, JPT Peptide Technologies] | Uncleaved
AAGVAPLS [B11, substrate peptide of the commercial peptide substrate set PrSS-360-75, JPT Peptide Technologies] | Uncleaved
NGLRADPM [H17, substrate peptide of the commercial peptide substrate set PrSS-360-75, JPT Peptide Technologies] | Cleaved
RAKRSVHF [H02, substrate peptide of the commercial peptide substrate set PrSS-360-75, JPT Peptide Technologies] | Uncleaved
GPQGLLGA [C01, substrate peptide of the commercial peptide substrate set PrSS-360-75, JPT Peptide Technologies] | Uncleaved
